Results reported in the nanobody polyreactivity screen of Harvey et al. (2022).

test: yeast display, Sf9 membrane polyspecificity reagent, FACS + sequencing; frameworks hold sequencing errors
Summary of the method: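 After 36–48 hours of galactose induction, yeast (Saccharomyces cerevisiae BJ5465) displaying a synthetic nanobody library were stained at 4 °C for 1 hour with 10% biotinylated, detergent-solubilized Sf9 membrane reagent. Streptavidin microbeads enriched the stained cells before FACS sorting into low and high (top ~1%) gates on anti-HA and streptavidin fluorescence. Each clone's polyreactivity label reflects its gate of origin.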

Sequence	polyreactivity (PSR sort gate)
QVQLVESGGGLVQAGGSLRLSCAASGSTFEDYAMGGYRQAPGKERELVAAISHIGGSTYYADSVKGRFTISRDNAKNTVYLQMNSLKPEDTAVYYCAKGGFSSKFDFWGQGTQVTVSS	low polyreactivity
QVQLVESGGGLVQAGGSLRLSCAASGSTFEDYAMGWYTQAPGKERELVAAINKTGGSTNYADSVKGRFTISRDNAKNTVYLQMNSLKPEDTAVYYCAADGSNYSASVAAFPYRVVYWGQGTQVTVSS	low polyreactivity
QVQLVESGGGLVQAGGSLRLSCAASGSTFEFYAMGWYRQAPGKERELVAAIWRGGSTHYADSVKGRFTISRDNAKNTVYLQMNSLKPEDTAVYYCAASPYIFWRFEYWGQGTQVTVSS	low polyreactivity
QVQLVESGGGLVQAGGSLRLSCAASGSTFEPYAMGCYRQAPGKERELVAAISWSGGSTYYADSVKGRFTISRDNAKNTVDLQMNSLKPEDTAVYYCAAESGVPYYLPVVIYYYWGQGTQVTVSS	high polyreactivity
QVQLVESGGGLVQAGGSLRLSCAASGSTFERYVMGWYRQRLGKKGSWLPVLNHNGGSTYYADSVKGRFTISRDNAKNTVYLQMNSLKPEDTAVYYCAASFRTVLDFGYWGQGTQVTVSS	low polyreactivity
QVQLVESGGGLVQAGGSLRLSCAASGSTFESNAMGWYRQAPGKERELVASISGSGGSTFYADSVKGRFTISRDNAKNTVYLQMNSLKPEDTAVYYCNRGRDEYDYWGQGTQVTVSS	low polyreactivity
QVQLVESGGGLVQAGGSLRLSCAASGSTFESYAMGWYRQAHGKERELVASISRSGGTTFYADSVKGRFTISRDNAKNTVYLQMNSLKPEDTAVYYCAAKRRRLGGDYWGQGTQVTVSS	high polyreactivity
QVQLVESGGGLVQAGGSLRLSCAASGSTFESYAMGWYRQAPGKERELVAAISWRVGSTYYADSVKGRFTISRDNAKNTVYLQMNSLKPEDTAVYYCASKGWYSHYGGYDYWGQGTQVTVSS	low polyreactivity
QVQLVESGGGLVQAGGSLRLSCAASGSTFEYNAMGWYRQAPGKERELVASSTNYADSVKGRFTISRDNAKNTVYLQMNSLKPVDTAVYYCAREQGVNRNHDYWGQGTQLTVSS	low polyreactivity
QVQLVESGGGLVQAGGSLRLSCAASGSTFEYNVMGWYRQAPGKERELVASITSDGNTNYSDSVKGRFTISRDNAKNTVYLQMNSLKPEDTAVYYCNFYTWHWTFGMDYWGQGTQVTVSS	low polyreactivity
QVQLVESGGGLVQAGGSLRLSCAASGSTFEYYAMGWDRQAPGKERELVAGISTGGSSNYADSVKGRFTISRDNAKNTVYLQMNSLKPEDTAVYYCNRDWALYVFGSHYHAYYSWGQGTQVTVSS	low polyreactivity
QVQLVESGGGLVQAGGSLRLSCAASGSTFEYYAMGWYRQAPGKEREFVAAITLSGGRTYYADSVKGRFTISRDNAKNTVYLQMNSLKPEDTAVYYCNVVVTWWLPSEYDYWGQGTQVTVSS	high polyreactivity
QVQLVESGGGLVQAGGSLRLSCAASGSTFEYYAMGWYRQAPGKERELVAAISRGGSTYYADSVKGRFTISRDNAKNTVYLQMNSLKPEDTAVYYCAAAPDYRAEYDYWGQGTQVTVSS	low polyreactivity
QVQLVESGGGLVQAGGSLRLSCAASGSTFFAYAMGWYRQAPGKERELVAAITGRGSTYYADSVKGRFSISRDNAKNTVYLQMNSLKPEDTAVYYCAAQRSRRYYRLDYWGQGTQVTVSS	high polyreactivity
QVQLVESGGGLVQAGGSLRLSCAASGSTFFDNAMGWYRQAPGKERELVAAITWNGGRTYYADSVKGRFTISRDNAKNTVYLQMNSLKPEDTAVYYCAKVPLYGRVIYRQPDVYSWGQGTQVTVSS	high polyreactivity
QVQLVESGGGLVQAGGSLRLSCAASGSTFFFNAMGWYRQAPGKERELVASITDTSGRTYYADSVKGRFTISRDNAKNTVYLHMNSLKPEDTAVYYCDKDFDQGGREMDYWGQGTQVTVSS	low polyreactivity
QVQLVESGGGLVQAGGSLRLSCAASGSTFFGYDMGWYRQAPGKERELVASINSGGSTYFADSEKGRFTISRDNPKNTVYLQMNSLKPEDTAVYYCAARPSYLYPYDRTGEYDYWGQGTQVTVSS	high polyreactivity
QVQLVESGGGLVQAGGSLRLSCAASGSTFFIYAMGWYRQAPGKERELVAAISKSGGTTYYADSVKGRFTISRDNAKNTVYLQMNSLKPEDTAVYYCAAYYTKGVARRQFYYWGQGTQVTVSS	high polyreactivity
QVQLVESGGGLVQAGGSLRLSCAASGSTFFIYAMGWYRQAPGKERELVATITKRGGRTYYADSVKGRFTISRDNAKNTVYLQMNSLKPEDTAVYYCAKDLWAVYLPGYDYWGQGTQVTVSS	low polyreactivity
QVQLVESGGGLVQAGGSLRLSCAASGSTFFKYAMGWYRPAPRKERELVAAISYSGGSTYYADSVKGRFTISRDNAKNTVYLQMNSLKPEDTAVYYCAARVQNRYRPYYYWGQGTQVTVSS	high polyreactivity
QVQLVESGGGLVQAGGSLRLSCAASGSTFFKYAMGWYRQAPGKERELVAGITSDGSTNYADSVKGRFTISRDNAKNTVYLQMNSLKPEDTAVYYCAADGSKWGVGTYDYWGQGTQVTVSS	low polyreactivity

Sequence	polyreactivity (PSR sort gate)
QVQLVESGGGLVQAGGSLRLSCAASGSTFFLYAMGWYRQAPGKERELVAAITYTDGDTYYADSVKGRFTISRDNAKNTVYLQMNSLKPEDTAVFYCNAGGDEPVYGSGYDYWGQGTQVTVSS	low polyreactivity
QVQLVESGGGLVQAGGSLRLSCAASGSTFFLYAMGWYRQAPGKERELVASITDGGSTNYADSVKGRFTISRDNAKNTVYLQMNSLKPEDTAVYYCNALARSSRYDYWGQGTQVTVSS	low polyreactivity
QVQLVESGGGLVQAGGSLRLSCAASGSTFFQYAMGWYRQAPGKERELVAAITTSGGRTYYADSVKGRFTISRDNAKNTVYLQMNSLKPEDTAVYYCAGYNYWGQGTQVTVSS	high polyreactivity
QVQLVESGGGLVQAGGSLRLSCAASGSTFFRNAKGWYRQAPGKERELVAANSSTGGTTYYAHSVKGRFTISRDNAQNTVYLQMNSLKPEETAVYYCAAAGYIENDGYVQKFEYWGQGTQVTVSS	low polyreactivity
QVQLVESGGGLVQAGGSLRLSCAASGSTFFRYAMGLYRQAPGKERELVAAISWSGGTTYYADSVKGRFTISRDNAQNTVYLQMYSLKPEDTAVYYCNAVRQGHILDYWGQGTQVTVSS	low polyreactivity
QVQLVESGGGLVQAGGSLRLSCAASGSTFFRYAMGWYRQAPGKEREFVAAISKRGGSTHYADSVQGRFTLSRDNAKNTVYLQMNSLKPEHTAVYYCAASSFTSSYNYWGQGTQVTVSS	high polyreactivity
QVQLVESGGGLVQAGGSLRLSCAASGSTFFRYSMGWYRQAPGKEREFVAAISKRGGSTHYADSVKGRFTITRDNAKNTVYLQMNSLKPEDTAVYYCAASSFNSSYNYWGQGTQVTVSS	high polyreactivity
QVQLVESGGGLVQAGGSLRLSCAASGSTFFSNTMGWYRQAPGKERELVAAITDSGTSTYYADSVKGRFTISRDNAKNTVYLQMNSLKPEDTAVYYCAAYPSGWYDYWGQGTLVTVSS	low polyreactivity
QVQLVESGGGLVQAGGSLRLSCAASGSTFFSYAMGWYRQAPGTERELVAAITRSGGSTYYADSVKGRFTISRDNAKNTVYLQMNSLKPEDTAVYYCAPRRYEPKAVYYWGQGTQVTVSS	high polyreactivity
QVQLVESGGGLVQAGGSLRLSCAASGSTFFTYAMGWYRQAPGKERELVASISIGGSTNYADSVKGRFTISRDNAKNTVYLQMNSLKPEDTAVYYCAIRYFTFGVDYDYWGHGTQVTVSS	low polyreactivity
QVQLVESGGGLVQAGGSLRLSCAASGSTFFVNAMGWYRQAPGKERELVAAISYSGGSTYYADSVKGRFTSSRDNAKNTVYLQMNSLKPEDTAVYYCAKDGGPAQDIGMDYCGQGTQVTVSS	low polyreactivity
QVQLVESGGGLVQAGGSLRLSCAASGSTFFVYTMGWYRQAPGKERELVAAISGSGGSTSYADSVKGRFTISRDNAKNTVYLQMNSLKPEDTAVYYCAARRHVYLRGSTFEFNYWGQGTQVTVSS	high polyreactivity
QVQLVESGGGLVQAGGSLRLSCAASGSTFFYNAMGWSRQAPGKERELVAAIRFSGGSTRYADSVKGRFTISRDNAKNTVYLQMNSLKPEDTAVYYCNARGFRESIWYQYDYWGQGTQVTVSS	high polyreactivity
QVQLVESGGGLVQAGGSLRLSCAASGSTFFYNAMGWYRQAPGKERESTNYADSVKGRFTISRDNAKNTVYLQMNSLKPEDTAVYYSAKDRSYYRKFSSYRLHDYWGHGTQVTVSS	low polyreactivity
QVQLVESGGGLVQAGGSLRLSCAASGSTFFYYTIGWYRQAPGKERELVASITNRGGNTYYADSVKGRFTISRDNAKNTVYLQTNSLKPEDTAVYYCARRYYGYSGRYDYWGQGTQVTVSS	high polyreactivity
QVQLVESGGGLVQAGGSLRLSCAASGSTFFYYTMGWYRQAPGKERELVASITNRGGNTYYADSVKGRFTISRDNAKTTVYLQMNSLKPEDTAVYYCARRYYWYSGRYDYWGQGTQVTVSS	high polyreactivity
QVQLVESGGGLVQAGGSLRLSCAASGSTFGAYAMGWYRQAPGKERELVAAISRSGASTYYADSVKGRFTISRDNAKNTVYLQMNSLKPVDTAVYYCAAKIVSRYRVIYDYWGQGTQVTVSS	high polyreactivity
QVQLVESGGGLVQAGGSLRLSCAASGSTFGDYAMGWSRQAPGKERELVAAISRGGSTYYADSVKGRFTISRDNEKNTVYLQMNSLKPEDTAVYYCNKDEGYSASPDGSTFDYWGQGTQVTVSS	low polyreactivity
QVQLVESGGGLVQAGGSLRLSCAASGSTFGDYAMGWYRQAPGKERELVAAISFSDGSTYYADSVKGRFTISRDNAKNTVYLQMNSLKPEDTAVYYCAKVDYWVYRWYTYDYWGQGTQVTVSS	low polyreactivity
QVQLVESGGGLVQAGGSLRLSCAASGSTFGDYTMGLYRQAPGKERELVAAITLTGGSTYYADSVKGRFTISRDNAKNTVYLQMNSLKPEDTAVYYCAKEWIFDFNYWGQGTQVTVSS	low polyreactivity
